Five molecules from patent US20230212587A1, “Mutant Hydroxyphenylpyruvate Dioxygenase Polypeptide, Encoding Gene Thereof and Use Therefor” (Beijing Dabeinong Biotechnology Co., Ltd., priority 2019, published 2023) can be followed below.

Changes are numbered by the printed parent chain. In names and notes the source's numbering stands.

B1: StHPPD-02: native Solanum tuberosum HPPD, SEQ ID NO: 123 (protein, listed as Solanum tuberosum)
chain: MGKQAATATATATATADDQQLPADIEDKYKLVGFNNFVRTNPRSDLFNVKRFHHIEFWCGDATNTARRFSWGLGLPIAAKSDLSTGNSVHASYLLRSSSSQLQFLFTAPYSPAISTPSSSSIPTFSVSSHRSFTETHGLGVRAIALEVENSRLAFSTCVSHGAKPVSEPVILNDEVVISEVHLYGDVVLRFVSFLKDSNRFVFLPGFELVEGAQLDYGIRRLDHAVGNVPQLGPVVEYIKSFTGFHEFAEFTAEDVGTAESGLNSVVLANNDETVLFPLNEPVYGTKRKSQIQTYLEHNEGAGVQHLALVTEDIFRTLREMRKRSGIGGFEFMPSPPPTYYKNLKSRAGDILSDEQIKECEELGILVDRDDQGTLLQIFTKPVGDRPTIFLEIIQRIGCMLQNAEGELYQKGGCGGFGKGNFSELFKSIEEYEKTLEAKQNTQVAIA
modifications: StHPPD Amino Acid Sequence
B2: StHPPDm-F372A-02: Solanum tuberosum HPPD mutant F372A, SEQ ID NO: 126 (protein)
chain: B1 chain with F379A
modifications: StHPPDm-F372A Amino Acid Sequence
B3: AhHPPD-02: native Arachis hypogaea HPPD, SEQ ID NO: 135 (protein, listed as Arachis hypogaea)
chain: MATAYTYAHAVTYCNSQHNPPIIPILSTNQHPPRVTLPSSIPHFISTITTFNLKHFPSHSLHTVMVTQTQQNAPSSSPELGFKLVGFKNFVRTNPKSDRFKVIRFHHVEFWCTDATNTASRFSWGLGMPIVAKSDLSTGNAVHASYLLRSGDLNFLFSAPYSASIAGDGASASFPSFSASDCHSFAAKHGLAVRAVAIEVEDASAAFSASVANGAKPVSPAVLLDNSVGFAEVHLYGDVVLRYISYSAPTRESNLNPTLRFLPGFEAVEADSSFPELDYGIRRLDHAVGNVPELAPAVNYLKKFTGFHEFAEFTAEDVGTSESGLNSVVLASNDEMVLLPLNEPVYGTKRKSQIETYLEHNEGAGLQHLALVSEDIFRTLREMRKRSTIGGFQFMPSPPPTYYRNLKKRAGDVLSDEQIKECEELGILVDRDDQGTLLQIFTKPVGDRPTIFIEIIQRIGCMLKDEEGKVYQKGGCGGFGKGNFSELFKSIEEYEKTLESRRTA
modifications: AhHPPD Amino Acid Sequence
B4: S1HPPD-02: native Solanum lycopersicum HPPD, SEQ ID NO: 129 (protein)
chain: MGKQAAAAADDQQLPGDIEDKFKLVGFNHFVRTNPRSDFFTVKRFHHIEFWCGDATNTARRFSWGLGLPIAAISDLSTGNSVHASYLLRSSSSSQLQFLFTAPYSSAISTSSSASIPTFSVSSHRSFTATHGLGVRAIALEVENSRLAFSTCVAHGAKPVSEPVILNDEVVIAEVHLYGDVVLRFVSFLKDSNCFVFLPGFESVEGAQLDYGIRRLDHAVGNVPELGPVVEYIKSFTGFHEFAEFTAEDVGTAESGLNSVVLANNDETVLFPLNEPVYGTKRKSQIQTYLEHNEGAGVQHLALVTEDIFRTLREMRKRSGIGGFEFMPSPPPTYYKNLKTRAGDILSDEQIQECEELGILVDRDDQGTLLQIFTKPVGDRPTIFLEIIQRIGCMLKNEEGELYQKGGCGGFGKGNFSELFKSIEEYEKTLEAKQNTQVAIA
modifications: SlHPPD Amino Acid Sequence (Solanum lycopersicum)
B5: S1HPPDm-F372A-02: Solanum lycopersicum HPPD mutant F372A, SEQ ID NO: 132 (protein)
chain: B4 chain with F373A
modifications: SlHPPDm-F372A Amino Acid Sequence

The first assay deals with Arabidopsis thaliana T1 plants. Briefly: Topramezone tolerance of transgenic Arabidopsis thaliana T1 plants (pesticide damage grade by bleached leaf area, score, resistance evaluation). The format is in vivo. Conditions: HPPDs from different species; number of plants (of 16) in this grade; topramezone 25 g ai/ha (1x), 7 DAT. In short, it runs like this: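 Herbicide tolerance was judged per plant on a bleaching scale (grade 0 no bleaching to grade 3 fully bleached) 7 DAT. Topramezone doses were 0, 25, 50 and 100 g ai/ha on 18-day-old T1 and wild-type plants.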
Turning to B1, the “Classification and statistics of pesticide damage grade Grade 0” value was determined as 0; the “Classification and statistics of pesticide damage grade Grade 1” value is 0; the “Classification and statistics of pesticide damage grade Grade 2” value is reported as 0; the “Classification and statistics of pesticide damage grade Grade 3” value is on record as 16.

As for B2, the “Classification and statistics of pesticide damage grade Grade 0” value was 4; the “Classification and statistics of pesticide damage grade Grade 1” value worked out at 12; the “Classification and statistics of pesticide damage grade Grade 2” value stood at 0; the “Classification and statistics of pesticide damage grade Grade 3” value is 0.

Turning to B3, the “Classification and statistics of pesticide damage grade Grade 0” value is listed as 0; the “Classification and statistics of pesticide damage grade Grade 1” value was determined as 0; the “Classification and statistics of pesticide damage grade Grade 2” value stood at 0; the “Classification and statistics of pesticide damage grade Grade 3” value was 16.

In the case of B4, the “Classification and statistics of pesticide damage grade Grade 0” value worked out at 0; the “Classification and statistics of pesticide damage grade Grade 1” value amounted to 0; the “Classification and statistics of pesticide damage grade Grade 2” value stood at 0; the “Classification and statistics of pesticide damage grade Grade 3” value was determined as 16.

On to B5, for which the “Classification and statistics of pesticide damage grade Grade 0” value was 1; the “Classification and statistics of pesticide damage grade Grade 1” value was 1; the “Classification and statistics of pesticide damage grade Grade 2” value was 14; the “Classification and statistics of pesticide damage grade Grade 3” value is recorded as 0.

The assay is the same for the next values; noted with them: HPPDs from different species; number of plants (of 16) in this grade; topramezone 100 g ai/ha (4x), 7 DAT.
On to B1, for which the “Classification and statistics of pesticide damage grade Grade 0” value is listed as 0; the “Classification and statistics of pesticide damage grade Grade 1” value turned out to be 0; the “Classification and statistics of pesticide damage grade Grade 2” value is listed as 0; the “Classification and statistics of pesticide damage grade Grade 3” value turned out to be 16.

For B2, the “Classification and statistics of pesticide damage grade Grade 0” value is on record as 0; the “Classification and statistics of pesticide damage grade Grade 1” value is 1; the “Classification and statistics of pesticide damage grade Grade 2” value was 4; the “Classification and statistics of pesticide damage grade Grade 3” value is 11.

Regarding B3, the “Classification and statistics of pesticide damage grade Grade 0” value was 0; the “Classification and statistics of pesticide damage grade Grade 1” value is 0; the “Classification and statistics of pesticide damage grade Grade 2” value amounted to 0; the “Classification and statistics of pesticide damage grade Grade 3” value was found to be 16.

Take B4: the “Classification and statistics of pesticide damage grade Grade 0” value is reported as 0; the “Classification and statistics of pesticide damage grade Grade 1” value is given as 0; the “Classification and statistics of pesticide damage grade Grade 2” value was 0; the “Classification and statistics of pesticide damage grade Grade 3” value was found to be 16.

As to B5, the “Classification and statistics of pesticide damage grade Grade 0” value worked out at 0; the “Classification and statistics of pesticide damage grade Grade 1” value worked out at 1; the “Classification and statistics of pesticide damage grade Grade 2” value was found to be 4; the “Classification and statistics of pesticide damage grade Grade 3” value stood at 11.

Staying with this assay, now noted: HPPDs from different species; score for pesticide damage 0-100; topramezone 25 g ai/ha (1x), 7 DAT.
B1 showed a Scores of 100.

B2 yielded a Scores of 25.

In turn, B3 had a Scores of 100.

B4 showed a Scores of 100.

In turn, B5 returned a Scores of 60.

The same assay, now with this note: HPPDs from different species; score for pesticide damage 0-100; topramezone 100 g ai/ha (4x), 7 DAT.
In turn, B1 yielded a Scores of 100.

The molecule B2 showed a Scores of 88.

On to B3, for which the Scores was 100.

Consider B4, for which the Scores was determined as 100.

In the case of B5, the Scores amounted to 88.

Staying with this assay, now noted: HPPDs from different species; topramezone 25 g ai/ha (1x), 7 DAT.
In the case of B1, the Resistance evaluation result is listed as “non-resistant (non-resistant plants (scores 68-100))”.

Consider B2, for which the Resistance evaluation result was “moderately resistant (moderately resistant plants (scores 16-33))”.

As for B3, the Resistance evaluation result was “non-resistant (non-resistant plants (scores 68-100))”.

B4: the Resistance evaluation result is “non-resistant (non-resistant plants (scores 68-100))”.

Turning to B5, the Resistance evaluation result is given as “poorly resistant (poorly resistant plants (scores 34-67))”.

Still in this assay, the particulars now being: HPPDs from different species; topramezone 100 g ai/ha (4x), 7 DAT.
Regarding B1, the Resistance evaluation result was “non-resistant (non-resistant plants (scores 68-100))”.

For B2, the Resistance evaluation entry is given as “non-resistant (non-resistant plants (scores 68-100))”.

For the molecule B3, the Resistance evaluation result is recorded as “non-resistant (non-resistant plants (scores 68-100))”.

Regarding B4, the Resistance evaluation entry is on record as “non-resistant (non-resistant plants (scores 68-100))”.

As to B5, the Resistance evaluation entry was “non-resistant (non-resistant plants (scores 68-100))”.
